Results taken from US20200291112A1 (Memorial Sloan Kettering, published 2020).

T1: Human GPA33 (Novoprotein), recombinant protein immobilized on CM5 chips (human, UniProt Q99795 22-235)
T1 construct: also called GPA33 recombinant protein; Human Glycoprotein A33
T1 sequence: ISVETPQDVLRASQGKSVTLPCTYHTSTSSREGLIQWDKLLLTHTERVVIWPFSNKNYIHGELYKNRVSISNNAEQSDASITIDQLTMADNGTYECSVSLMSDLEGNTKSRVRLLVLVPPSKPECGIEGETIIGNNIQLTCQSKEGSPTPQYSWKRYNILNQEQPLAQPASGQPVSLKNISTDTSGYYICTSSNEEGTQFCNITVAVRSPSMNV


Assays:
[1] = target: T1, Human GPA33 (Novoprotein), recombinant …; experiment: SPR (Biacore T100), GPA33 recombinant protein immobilized on CM5 chip, IgG1 flowed over, 25 °C, 1:1 binding model
Experimental: (§1) SPR analysis. Human GPA33 (Novoprotein, Summit, N.J.) was immobilized on CM5 chips. Five concentrations of 2-fold serially diluted huA33 IgG1 or huA33-BsAbs (starting at 20 nM) were flowed over the chip using a Biacore™ T100 system (GE Healthcare, Chicago, Ill.). Binding kinetics of huA33 were measured at 25° C. and binding kinetics of huA33-BsAbs were measured at both 25° C. and 37° C. The sensorgrams were fitted with 1:1 binding model for both to derive kinetic parameters.

[2] = target: T1, Human GPA33 (Novoprotein), recombinant …; experiment: SPR, KD of the parental huA33-BsAb over KD of the clone
Experimental: as §1

[3] = target: T1, Human GPA33 (Novoprotein), recombinant …; experiment: SPR, GPA33 immobilized on CM5 chip, clone in huA33-BsAb format; temperature not given for this table; the KD column head prints no unit

Row | Binder | Kd [1] [nM] | koff [1] [s⁻¹] | kon [1] [M⁻¹ s⁻¹] | Fold difference/Parental [2] [fold] | Kd [3] [nM]
1 | chimeric chA33-IgG1 (antibody, V domains shown, Chimeric antibody with murine A33 variable domains and a human IgG1 constant region; also called chimeric A33; 3A3-chA33) VH: EVKLVESGGGLVKPGGSLKLSCAASGFAFSTYDMSWVRQTPEKRLEWVATISSGGSYTYYLDSVKGRFTISRDSARNTLYLQMSSLRSEDTALYYCAPTTVVPFAYWGQGTLVTVSA VL: DIVMTQSQKFMSTSVGDRVSITCKASQNVRTVVAWYQQKPGQSPKTLIYLASNRHTGVPDRFTGSGSGTDFTLTISNVQSEDLADYFCLQHWSYPLTFGSGTKLEVKR | 0.31 | 0.000628 | 2.03e+06 | – | –
2 | affinity-matured clone 31 in huA33-BsAb format (bispecific antibody, human IgG1, kappa, N297A) heavy: not shown light: DIQMTQSQSSLSTSVGDRVTITCKASQNVRTVVAWYQQKPGKSPKTLIYLASNRHTGVPSRFSGSGSGTEFTLTISNVQPEDFADYFCLQHWSYPLTFGSGTKLEIKRTVAAPSVFIFPPSDEQLKSGTASVVCLLNNFYPREAKVQWKVDNALQSGNSQESVTEQDSKDSTYSLSSTLTLSKADYEKHKVYACEVTHQGLSSPVTKSFNRGECTSGGGGSGGGGSGGGGSQVQLVQSGGGVVQPGRSLRLSCKASGYTFTRYTMHWVRQAPGKCLEWIGYINPSRGYTNYNQKFKDRFTISRDNSKNTAFLQMDSLRPEDTGVYFCARYYDDHYSLDYWGQGTPVTVSSGGGGSGGGGSGGGGSGGGGSGGGGSGGGGSDIQMTQSPSSLSASVGDRVTITCSASSSVSYMNWYQQTPGKAPKRWIYDTSKLASGVPSRFSGSGSGTDYTFTISSLQPEDIATYYCQQWSSNPFTFGCGTKLQITR | – | – | – | 4.3 | 0.0387
3 | affinity-matured clone 32 in huA33-BsAb format (bispecific antibody, human IgG1, kappa, N297A) heavy: not shown light: DIQMTQSQSSLSTSVGDRVTITCKASQNVRTVVAWYQQKPGKSPKTLIYLASNRHTGVPSRFSGSGSGTEFTLTISNVQPEDFADYFCLQYWSYPLTFGSGTKLEIKRTVAAPSVFIFPPSDEQLKSGTASVVCLLNNFYPREAKVQWKVDNALQSGNSQESVTEQDSKDSTYSLSSTLTLSKADYEKHKVYACEVTHQGLSSPVTKSFNRGECTSGGGGSGGGGSGGGGSQVQLVQSGGGVVQPGRSLRLSCKASGYTFTRYTMHWVRQAPGKCLEWIGYINPSRGYTNYNQKFKDRFTISRDNSKNTAFLQMDSLRPEDTGVYFCARYYDDHYSLDYWGQGTPVTVSSGGGGSGGGGSGGGGSGGGGSGGGGSGGGGSDIQMTQSPSSLSASVGDRVTITCSASSSVSYMNWYQQTPGKAPKRWIYDTSKLASGVPSRFSGSGSGTDYTFTISSLQPEDIATYYCQQWSSNPFTFGCGTKLQITR | – | – | – | 29.7 | 0.00564
4 | affinity-matured clone 48 in huA33-BsAb format (bispecific antibody, human IgG1, kappa, N297A) heavy: not shown light: DIQMTQSQSSLSTSVGDRVTITCKASQNVRTVVAWYQQKPGKSPKTLIYLASDRHTGVPSRFSGSGSGTEFTLTISNVQPEDFADYFCLQYWSYPLTFGSGTKLEIKRTVAAPSVFIFPPSDEQLKSGTASVVCLLNNFYPREAKVQWKVDNALQSGNSQESVTEQDSKDSTYSLSSTLTLSKADYEKHKVYACEVTHQGLSSPVTKSFNRGECTSGGGGSGGGGSGGGGSQVQLVQSGGGVVQPGRSLRLSCKASGYTFTRYTMHWVRQAPGKCLEWIGYINPSRGYTNYNQKFKDRFTISRDNSKNTAFLQMDSLRPEDTGVYFCARYYDDHYSLDYWGQGTPVTVSSGGGGSGGGGSGGGGSGGGGSGGGGSGGGGSDIQMTQSPSSLSASVGDRVTITCSASSSVSYMNWYQQTPGKAPKRWIYDTSKLASGVPSRFSGSGSGTDYTFTISSLQPEDIATYYCQQWSSNPFTFGCGTKLQITR | – | – | – | 51 | 0.00329
5 | affinity-matured clone 57 in huA33-BsAb format (bispecific antibody, human IgG1, kappa, N297A) heavy: not shown light: DIQMTQSQSSLSTSVGDSVTITCKASQNVRTVVAWYQQKPGKSPKTLIYLASNRHTGVPSRFSGSGSGTEFTLTISNVQPEDVADYFCLQYWSYPLTFGSGTKLEIKRTVAAPSVFIFPPSDEQLKSGTASVVCLLNNFYPREAKVQWKVDNALQSGNSQESVTEQDSKDSTYSLSSTLTLSKADYEKHKVYACEVTHQGLSSPVTKSFNRGECTSGGGGSGGGGSGGGGSQVQLVQSGGGVVQPGRSLRLSCKASGYTFTRYTMHWVRQAPGKCLEWIGYINPSRGYTNYNQKFKDRFTISRDNSKNTAFLQMDSLRPEDTGVYFCARYYDDHYSLDYWGQGTPVTVSSGGGGSGGGGSGGGGSGGGGSGGGGSGGGGSDIQMTQSPSSLSASVGDRVTITCSASSSVSYMNWYQQTPGKAPKRWIYDTSKLASGVPSRFSGSGSGTDYTFTISSLQPEDIATYYCQQWSSNPFTFGCGTKLQITR | – | – | – | 10.7 | 0.0156
6 | affinity-matured clone 49 in huA33-BsAb format (bispecific antibody, human IgG1, kappa, N297A) heavy: not shown light: DIQMTQSQSSLSTSVGDRVTITCKASQNVRTLVAWYQQKPGKSPKTLIYLASNRHTGVPSRFSGSGSGTEFTLTISNVQPEDFADYFCLQHWSYPLTFGSGTKLEIKRTVAAPSVFIFPPSDEQLKSGTASVVCLLNNFYPREAKVQWKVDNALQSGNSQESVTEQDSKDSTYSLSSTLTLSKADYEKHKVYACEVTHQGLSSPVTKSFNRGECTSGGGGSGGGGSGGGGSQVQLVQSGGGVVQPGRSLRLSCKASGYTFTRYTMHWVRQAPGKCLEWIGYINPSRGYTNYNQKFKDRFTISRDNSKNTAFLQMDSLRPEDTGVYFCARYYDDHYSLDYWGQGTPVTVSSGGGGSGGGGSGGGGSGGGGSGGGGSGGGGSDIQMTQSPSSLSASVGDRVTITCSASSSVSYMNWYQQTPGKAPKRWIYDTSKLASGVPSRFSGSGSGTDYTFTISSLQPEDIATYYCQQWSSNPFTFGCGTKLQITR | – | – | – | 7.6 | 0.022
7 | affinity-matured clone 56 in huA33-BsAb format (bispecific antibody, human IgG1, kappa, N297A) heavy: not shown light: DIQMTQSQSSLSTSVGDRVTITCKASQNVRTLVAWYQQKPGKSPKTLIYLASNRHTGVPSRFSGSGSGTEFTLTISNVQPEDFADYFCLQYWSYPLTFGSGTKLEIKRTVAAPSVFIFPPSDEQLKSGTASVVCLLNNFYPREAKVQWKVDNALQSGNSQESVTEQDSKDSTYSLSSTLTLSKADYEKHKVYACEVTHQGLSSPVTKSFNRGECTSGGGGSGGGGSGGGGSQVQLVQSGGGVVQPGRSLRLSCKASGYTFTRYTMHWVRQAPGKCLEWIGYINPSRGYTNYNQKFKDRFTISRDNSKNTAFLQMDSLRPEDTGVYFCARYYDDHYSLDYWGQGTPVTVSSGGGGSGGGGSGGGGSGGGGSGGGGSGGGGSDIQMTQSPSSLSASVGDRVTITCSASSSVSYMNWYQQTPGKAPKRWIYDTSKLASGVPSRFSGSGSGTDYTFTISSLQPEDIATYYCQQWSSNPFTFGCGTKLQITR | – | – | – | 6.9 | 0.0243
8 | affinity-matured clone 53 in huA33-BsAb format (bispecific antibody, human IgG1, kappa, N297A) heavy: not shown light: DIQMTQSQSSLSTSVGDRVTITCKASQNVRTVVAWYQQKPGKSPKTLIYLASNRHTGVPSRFSGSGSGTEFTLTISNVQPEDFADYFCLQYWSYPLTFGSGTKLEIKRTVAAPSVFIFPPSDEQLKSGTASVVCLLNNFYPREAKVQWKVDNALQSGNSQESVTEQDSKDSTYSLSSTLTLSKADYEKHKVYACEVTHQGLSSPVTKSFNRGECTSGGGGSGGGGSGGGGSQVQLVQSGGGVVQPGRSLRLSCKASGYTFTRYTMHWVRQAPGKCLEWIGYINPSRGYTNYNQKFKDRFTISRDNSKNTAFLQMDSLRPEDTGVYFCARYYDDHYSLDYWGQGTPVTVSSGGGGSGGGGSGGGGSGGGGSGGGGSGGGGSDIQMTQSPSSLSASVGDRVTITCSASSSVSYMNWYQQTPGKAPKRWIYDTSKLASGVPSRFSGSGSGTDYTFTISSLQPEDIATYYCQQWSSNPFTFGCGTKLQITR | – | – | – | 9.6 | 0.0175
